41 sequences from the nanobody polyreactivity screen of Harvey et al. (2022) can be followed below.

This series is described as follows: yeast display, Sf9 membrane polyspecificity reagent, FACS + sequencing; frameworks hold sequencing errors. An outline of the steps: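 Sorting gates, low and high (top ~1%), were placed on anti-HA fluorescence to track expression and on streptavidin fluorescence to track reagent binding. A clone's polyreactivity label is taken from the gate it came out of. The reagent was 10% biotinylated, detergent-solubilized Sf9 membrane, applied for 1 hour at 4 °C to galactose-induced yeast display cells.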
Regarding “QDQLVESGGVLVQAGGSLRLSCAASGRIFVYNAMGWYRQAPGKERELVATIDYSGGSTYYADSVKGRFTNSRDYAKNTVYLQINSLKPEDPAVYYCNADWSVYAYDSWGQGTQVTVSS”, the “polyreactivity (PSR sort gate)” value is reported as “low polyreactivity”.
Then “QVQLVESGGGLVQAGGSLRLSCAASGYISYVNAMGWYRQAPGKERELVAAISGRGGSTYYADSVKGRFTISRDNAKNNVYLQMNSLKPEDTAVYYCAADLYYSYYWGQGTQVTVSS”, with “low polyreactivity”; and “QVQLVESGGGLVQAGGSLRLSCAASGSIFRYYAMGWYRQAPGKEREFDASITYRGGRTYYADSVKGRFTISRDNAKNTVYLQMNSLKPEDTAVYYCAARTRAGAWTSKYHDYWGQGTQVTVSS”, with “high polyreactivity”; and “QVQLVESGGGLVQAGGSLRLSCAASGFIFGEYAMGWYRQAPGKERELVAAITWSGGSTSYADSVKGRFTSSRDNAKNTVYLQMNSLKPEDTAVYYCSARWHVYWGGFYYWGQVTQVTVSS”, with “high polyreactivity”.
As for “QVQLVESGGGLVQAGGSLRLSCGASGRIFRGYAMGWYRQGPGKERELVAAISRRGGSTYYADSVKGRFTISRDNAKNTVYLQMNSLKPVDTAVYYCNADGVHYVAYAGGYWGQGTQVTVSS”, the entry is “high polyreactivity”.
Then “QVQLVESGGGLVQAGGSLRLSCAASGRIFFLNTMGWYRQAPGKERELVAAITRGGSTYYADSVKGRFTISRDNAKNTVYLHMNSLKPEDTAVYYCAADVYGGIGYDYWGQGTQVTVSS”, with “low polyreactivity”; and “QVQLVESGGGLVQAGGSLRLSCAASGFIYRLNAMGWYRQAPGKERELVAAISTYADSVKGRFTFSRDNAKTTVYLQMNSLKPEDTAVYYCAKDYTDSYAYRTGFDYWGQGTQVTVSS”, with “low polyreactivity”; and “QVQLVESGGGLVQAGGSLRLSCAASGRTFTLYAMGWSRPAPGKERELVAAIRWSGSSTYYADSVKGRFTISRDNSKNTVYLQMNSLKPEDTAVYYCAARAGRYDRYGYWGQGTQVTVSS”, with “high polyreactivity”.
As to “QGQLVESGGGLVQAGGSLRLSCAASGSTFPTNSMGWYRPAPGNDRELVAAITGGASTYYADSVKGRFTISRDNAKNTVYLQMNSLKPEDTAVYYCAADDSWFYYGYGYWGQGTQVTVSS”, the “polyreactivity (PSR sort gate)” value was “low polyreactivity”.
As for “QVQLVESGGGLVQAGGSLRLSCAASGRIFYFNAMGWYRQAPGKERELVAAMSWTGGSTYYADSVKGRFTISRDTAKNTVYLQMNSLKPEDTAVYYCAADRALSISLYPIASFDYWGQGTQVTVSS”, the entry is “low polyreactivity”; as for “QVQLVESGGGLVQAGGSLRLTCGASGFTFDSYAMGWSRQEPGKERELVAAISTIGGRTYYADSVKGRFTISRDNAKNTVYLQMNSLKPEDTAVYYCAAEQGTPSTNWYDYWGQGTQVTVSS”, “low polyreactivity”; as for “QVQLVESGGGLVQAGGSLRLSCAASGRTFFYYSMGWYRQAPGKERELVATITKRGGSTYYADSVKGRFTISRDNAKNTVYLQMNSLKPEDTAVYYCNATLGRTTAVFKYYWGQGTQVTVSS”, “high polyreactivity”.
As for “QVQLVESGGGLVQAGGSLRLSCAASGRIFYPYAMGWYRQAPGKERELVAAISYSGGSTFYADSVKGRFTISRDNAKNTVYLQMNSLKPEDTAVYYCIKPGLYIYGSWGQGTQVTVSS”, the entry is “high polyreactivity”; as for “QVQLVDSGGGLVQAGGSLRLSCAASGSIFYRNAMGWSRQAPGKERELVAAITRGGSTYYADSVKGRFTISRDNAKNTVYLQMNSLKPEDTAVYYCNAYGGFAYSYDYWGQGTQVTVSS”, “high polyreactivity”; as for “QVQLVESGGGLVQAGGSLLLSCAASGRIFYGNAMGWYRQAPGKERELVAPISSGTSTNYADSVKGRFTISRDNGKNTVYLQMNSLKPEDTAVYYCAAGSYSRYLYSLYFDFDYWGQGTQVTVSS”, “low polyreactivity”.
Then “QVQVVESGAGEVQAGGSLRLSCAASGSIFPFNAMGWYRQAPGKERELVAAISVNGGSTYYADSVKGRFTISRDNAKNTVYIQMNSLKPEDTAVYYCNTGGTFLDWVRRPFGFGYWGQGTQVTVSS”, with “low polyreactivity”.
In the case of “QVQLVESGGGLVQAGGSLRLSCAASGRTYGHDTMGWYRQAPGKERELVARISRTGSTKYADSVKGRFTISRDNAKNTVYLQMNCLTPEDTAVYYCARVQAGGYGERVYAYHFDYWGQGTQVTVSS”, the “polyreactivity (PSR sort gate)” value was “high polyreactivity”.
Then “QVQLVESGGGLVQEGGSLRLICAASGRIFRYYAMGWYRQAPGKERELVASITYSGGRTNYADSVKGRFTISRDNAKNTVYVQMNSLKPEDTAVYYCNAAYVYYYPHYRYAPTAVDYDYWGQGTQVTVSS”, with “low polyreactivity”; and “QVQLVESGGGLVQAGGSLRLSCAASGSTSSSKAMGWYREAPGKERELVATITNGSGTSYADSVKGRFTISRDNAKNTVYLQMNSLKPEDTAVYYCYVSSLNSYTSGTTYWGLDYWGQGTQVTVSS”, with “low polyreactivity”; and “QVQLVESGGGLVQAGGSLRLSCPASGSNLSRYAMGWYRQAPGKERELVAGITWRGGSTYYADSVKGRFTISRDNAKNTVYLQMNSLKPEDTAVYYCARRYGGYKWVRAYYYWGQGTQVTLSS”, with “high polyreactivity”.
As for “QVQLVESGGGLVQAGGSLRLSSAASGRILKYYAMGWYRQAPGKERELVAAIGSGGSTYYADSVKGRFTISRDNAKNTVYLQMNSLKPDDTAVYYCNAEDQWGGYGYDYWGQGTQLTVSS”, the entry is “low polyreactivity”; as for “QVQLVESGGGLVQAGGSLRLSCAASGSIFGWYAKGLYRQAPGKEREFVAVISSSGDSTFYADSVKGRFTISRDNAKNTVYLQMNSLKPEDTAVYYCAAYYYYYYWPQTAYWQGDYWGHGTQVTVSS”, “high polyreactivity”; as for “QVQLVESGGGLVQAGGSLRLSCAASGFTFNYYAMGLYRQAPGKERELVARITSGGSTYYADSVKGRFTISRDNAKNTVYLQMNSLKPEDTAVYYCNVDVSVEVAYWGQGTQVTVSS”, “low polyreactivity”.
As for “QVQLVESGGGLVQAGGSLRLSCAASGSTFGRYVMGWYRQAPGKERELVAAISKNAGSTYYADSVKGRFTISRDNAKNTVYLQMNSLKPEDTAVYYCNAQSFREYGYWGQGTQVTVSS”, the entry is “high polyreactivity”.
For “QVQLVESGGGLVQAGGSLRLSCAASGSTFVNNAMGWYRQAPGKERELVAAISWSGGSTYYADSVKGRFTISRDNAKNTVYLQMNSLNPEDTAVYYCAADGNARAAMDYWGQGTQVTVSS”, the “polyreactivity (PSR sort gate)” value is given as “low polyreactivity”.
Then “QFQPVESGGGLVQAGGSLRLSCAASGFTFYRYAMGWYRPAHGKERELVAAITFSGSSTYYADSVKGRFTISRDNAKNTVYLQMNSLKEEDTAVYYCAAGGSFWYFSPRYGYWGQGTQVTVSS”, with “high polyreactivity”.
Turning to “QVQLVESGGGLVQAGGSLRLSCAASGFIFLSYAMGWYRQAPGKESELVAAITSNGGSTYYADSVKGRFTISRDNAKNTVYLQMNSLKPEDTAVYYCSADSGYGPYYYWGQGTQVTVSS”, the “polyreactivity (PSR sort gate)” value is recorded as “high polyreactivity”.
As for “QVQLVESGGGLVQAGGSLRLSCAASGSIFGDNAMGWSRQAPGKERDLVAAISSGGPTYADSVKGRFTISRDYAKNTVYLLMNSLKPEDTAVYYCNATDGMTPYDLTDIEFDYWGQGTHVTVSS”, the entry is “low polyreactivity”.
As for “QVQLVESGGGLVQAGGSLRLSCAASGRTSGFNTMGWYRQAPGKESELVAAISFSGGSTYYADSVKGRFTISRDNAKNTVYLHMNSLKPEDTAVYYCNALYRYLYRSGDYWGQGTQVTVSS”, the entry is “low polyreactivity”; as for “QVQLVESGGGLVQAGGSLRLSCAASGSILFTNAMGWYRQAPGKERELVAAISSGGSTYYADSVKGRFTISRDNAKNTVYLQMNSLKPEDTAVYYCAADQLNVGREYVEYDFWGQGTQVTVSS”, “low polyreactivity”; as for “QVQLVESGGGLVQAGGSLRLSCAASGSIFYKNAMGWYRQAPGKERELVAAITYSGGSTYYADSVKGRFTISRDNAKNTVYLQMNSLKPEDTAVYYCAADIGVYGERREEEYDYWGQGTQVTVSS”, “low polyreactivity”.
Then “QVQLVESGGGLVQAGGSLRLSCAASGSTFWLNAMGWYRQAPGKEREYVAAITWSSGSTYYADSVKGRFTISRDNAKNTVYLQMNSLKPEDTAVYYCAADGRYVRIRGDYWGQGTQVTVSS”, with “low polyreactivity”; and “QVQLVESGGGLVQAGGSLRLSCAASGFTFSDYVMGWYRQAPGKERELVAVITSGSSTYYADSVKGRFTISRDNAKNTVYLQMNSLKPEDTAVYYCNADPDDGYFSDFDYWGQGTQVTVSS”, with “low polyreactivity”; and “QVQLQESGGGLVLAGGSLRLSCAESGYISWSFTMGWYRKAPGKEREFVAGITYGGITYYADSVKGRFTISRDNAKNTVYLQMNSLKPEDTAVYYCAAPQTYPYVYVYWGQGTQVTVSS”, with “high polyreactivity”.
For “QVQLVESGGGLVQAGGSLRLSCAASGRIFLWYAMGWYRQAPGKERELVAAISSNGGSTRYADSVKGRFTISRDNAKNTVYLQMNSLKPVDNAVYYCNADVHWNRYPYGGNGYGYWGQGTQVTVSS”, the “polyreactivity (PSR sort gate)” value is “low polyreactivity”.
Then “QVQLVETGGGLVQAGGSLRLSCAASGSIFRDNAMGWYRQAPGKESELVAAINVRDGDTFYADSVKGRFTISRDNAKNTVYLQMNSLKPEDTAVYYCAVAGATSYFAYDSWGQGTQVTVSS”, with “low polyreactivity”; and “QVQLVESGGGLVQAGGSLRLSCAASASTFYSYTMGWSRQAPGKERELVAAISRSGGRTYYADSVKGRFTISRDNAKNTVYLQMNSLKPEDTAVYYCAARWLGVDDYEYWGQGTQVTVSS”, with “high polyreactivity”.
As for “HVQLVESGGGLVQAGGSLRLSCAASGRIFYYNAMGWYRQAPGKERELVAVITWRGGTTYYADSVKGRFTTSRDTAKNTVYLQMNSLKPEDTAVYYCAADTGAFDGYYRQPRIRFDYWGQGTQVTVSS”, the entry is “high polyreactivity”; as for “QGQLVESGGGLVQAGGSLRLSCAASGYIIRAYAMGWYRQAHGKERELVAAISSRGGSTYYADSVKGRFTISRDNAKNTVYLQMNSLKPEDTAVYYCAAAYRQPYIGYGYWGQGTQVTVSS”, “high polyreactivity”; as for “QVQLVESGGGLVQAGGSLRLSCAASGFTINFYAMGWYRQAPGKERELVAAITASGGGSTYYADSVKGRFTISRDNAKNTVYLQMNSLKPEDTAVYYCNADYTGSFYTYDYWGQGTQVTVSS”, “low polyreactivity”.
Then “QVQLVESGGGLVQAGGSLRLSCAASGLTFEYNAMGWYRQAPGKERELVAAITSGVNTYYADSVKGRFTISRDNAKNTVYLQMNSLKPEDTAVYYCAKYRWNWRYVSRGDSWGQGTQVTVSS”, with “high polyreactivity”.
